From IntAct's records for PubMed 35512704 come the findings set out here.

The labels stand for the following.
B1: Speckle-type POZ protein (Homo sapiens), O43791 (parent)
chain: MSRVPSPPPPAEMSSGPVAESWCYTQIKVVKFSYMWTINNFSFCREEMGEVIKSSTFSSGANDKLKWCLRVNPKGLDEESKDYLSLYLLLVSCPKSEVRAKFKFSILNAKGEETKAMESQRAYRFVQGKDWGFKKFIRRDFLLDEANGLLPDDKLTLFCEVSVVQDSVNISGQNTMNMVKVPECRLADELGGLWENSRFTDCCLCVAGQEFQAHKAILAARSPVFSAMFEHEMEESKKNRVEINDVEPEVFKEMMCFIYTGKAPNLDKMADDLLAAADKYALERLKVMCEDALCSNLSVENAAEILILADLHSADQLKTQAVDFINYHASDVLETSGWKSMVVSHPHLVAEAYRSLASAQCPFLGPPRKRLKQS
partner: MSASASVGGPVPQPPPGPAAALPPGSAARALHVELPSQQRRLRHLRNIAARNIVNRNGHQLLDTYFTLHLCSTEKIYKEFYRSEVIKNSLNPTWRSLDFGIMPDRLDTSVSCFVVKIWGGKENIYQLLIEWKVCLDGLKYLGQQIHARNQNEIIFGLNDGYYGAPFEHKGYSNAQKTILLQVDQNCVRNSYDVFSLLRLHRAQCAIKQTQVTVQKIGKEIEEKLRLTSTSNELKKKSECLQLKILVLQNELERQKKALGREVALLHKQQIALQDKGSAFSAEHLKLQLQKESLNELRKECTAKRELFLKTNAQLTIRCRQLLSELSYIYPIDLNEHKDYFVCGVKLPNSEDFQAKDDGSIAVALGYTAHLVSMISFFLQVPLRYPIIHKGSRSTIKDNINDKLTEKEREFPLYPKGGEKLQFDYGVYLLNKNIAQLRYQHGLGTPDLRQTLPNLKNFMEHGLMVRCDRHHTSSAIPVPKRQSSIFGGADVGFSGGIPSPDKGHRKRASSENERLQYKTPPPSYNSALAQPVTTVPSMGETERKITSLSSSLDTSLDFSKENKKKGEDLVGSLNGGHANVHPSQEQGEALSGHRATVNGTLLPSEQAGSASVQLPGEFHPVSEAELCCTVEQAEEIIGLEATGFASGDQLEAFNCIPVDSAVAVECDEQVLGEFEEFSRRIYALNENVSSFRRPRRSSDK
B2: Speckle-type POZ protein (Homo sapiens), O43791 (parent)
chain: B1 chain
partner: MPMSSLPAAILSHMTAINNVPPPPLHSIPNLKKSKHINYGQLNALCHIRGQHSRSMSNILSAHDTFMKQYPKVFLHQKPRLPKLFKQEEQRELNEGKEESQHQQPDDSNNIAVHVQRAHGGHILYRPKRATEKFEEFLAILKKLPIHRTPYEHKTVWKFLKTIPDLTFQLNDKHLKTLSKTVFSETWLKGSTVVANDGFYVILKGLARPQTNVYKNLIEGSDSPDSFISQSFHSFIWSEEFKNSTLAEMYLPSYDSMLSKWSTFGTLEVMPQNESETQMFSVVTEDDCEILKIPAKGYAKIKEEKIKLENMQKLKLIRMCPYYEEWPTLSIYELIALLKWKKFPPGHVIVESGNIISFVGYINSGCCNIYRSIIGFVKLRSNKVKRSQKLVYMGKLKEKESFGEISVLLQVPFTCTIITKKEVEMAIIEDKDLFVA
B3: Speckle-type POZ protein (Homo sapiens), O43791 (parent)
chain: B1 chain
partner: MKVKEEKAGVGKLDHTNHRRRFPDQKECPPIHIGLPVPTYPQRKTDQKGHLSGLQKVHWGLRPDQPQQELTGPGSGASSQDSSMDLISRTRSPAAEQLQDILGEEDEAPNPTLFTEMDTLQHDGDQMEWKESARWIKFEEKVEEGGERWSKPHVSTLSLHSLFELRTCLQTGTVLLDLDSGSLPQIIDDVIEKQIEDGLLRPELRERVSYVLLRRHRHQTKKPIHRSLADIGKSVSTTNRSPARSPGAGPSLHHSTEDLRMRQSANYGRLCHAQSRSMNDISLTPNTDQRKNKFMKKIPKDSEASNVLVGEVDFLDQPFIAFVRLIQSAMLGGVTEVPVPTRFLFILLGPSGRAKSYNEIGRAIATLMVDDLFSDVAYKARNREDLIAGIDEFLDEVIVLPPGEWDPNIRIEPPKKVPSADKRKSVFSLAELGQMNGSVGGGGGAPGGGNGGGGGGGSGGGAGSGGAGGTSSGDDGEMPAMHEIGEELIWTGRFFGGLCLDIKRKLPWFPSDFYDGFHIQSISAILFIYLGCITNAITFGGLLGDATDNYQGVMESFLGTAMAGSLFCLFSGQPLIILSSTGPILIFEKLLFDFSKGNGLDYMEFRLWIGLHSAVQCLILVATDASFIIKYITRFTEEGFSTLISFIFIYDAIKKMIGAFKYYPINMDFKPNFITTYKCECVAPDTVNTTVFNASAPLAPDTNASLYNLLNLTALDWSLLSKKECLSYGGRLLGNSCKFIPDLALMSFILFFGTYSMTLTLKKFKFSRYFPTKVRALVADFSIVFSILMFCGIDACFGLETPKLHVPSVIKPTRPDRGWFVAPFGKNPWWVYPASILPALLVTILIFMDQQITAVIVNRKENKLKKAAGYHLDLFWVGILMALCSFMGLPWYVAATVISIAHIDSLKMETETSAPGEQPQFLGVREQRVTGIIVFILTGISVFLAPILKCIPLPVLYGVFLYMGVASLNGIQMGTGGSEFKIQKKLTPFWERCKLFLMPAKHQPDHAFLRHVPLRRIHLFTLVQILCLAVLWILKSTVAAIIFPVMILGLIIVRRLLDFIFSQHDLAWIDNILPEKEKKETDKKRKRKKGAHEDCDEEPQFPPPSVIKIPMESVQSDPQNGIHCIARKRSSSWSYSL
B4: Speckle-type POZ protein (Homo sapiens), O43791 (parent)
chain: B1 chain
partner: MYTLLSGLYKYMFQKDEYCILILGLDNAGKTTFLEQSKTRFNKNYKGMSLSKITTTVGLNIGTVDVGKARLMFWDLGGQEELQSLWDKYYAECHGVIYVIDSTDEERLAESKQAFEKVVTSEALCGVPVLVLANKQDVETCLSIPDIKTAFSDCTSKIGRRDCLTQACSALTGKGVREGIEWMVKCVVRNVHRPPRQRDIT
B5: Speckle-type POZ protein (Homo sapiens), O43791 (parent)
chain: B1 chain
partner: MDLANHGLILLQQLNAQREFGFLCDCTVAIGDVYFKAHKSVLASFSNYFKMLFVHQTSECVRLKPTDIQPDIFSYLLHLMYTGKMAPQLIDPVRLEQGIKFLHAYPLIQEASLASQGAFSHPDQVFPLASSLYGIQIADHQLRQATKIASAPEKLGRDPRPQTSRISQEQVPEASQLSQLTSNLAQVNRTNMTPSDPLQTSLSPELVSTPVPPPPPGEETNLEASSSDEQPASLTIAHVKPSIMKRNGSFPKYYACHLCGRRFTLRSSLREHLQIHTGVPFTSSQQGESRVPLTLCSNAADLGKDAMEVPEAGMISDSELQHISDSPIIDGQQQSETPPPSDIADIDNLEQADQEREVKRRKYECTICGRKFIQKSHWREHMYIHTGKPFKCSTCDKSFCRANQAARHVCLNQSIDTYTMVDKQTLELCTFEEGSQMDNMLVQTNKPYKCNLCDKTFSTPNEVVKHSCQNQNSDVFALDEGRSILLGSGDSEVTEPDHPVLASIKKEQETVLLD

In one assay the parent is B1. To be noted: with uvrag_human UVRAG.
Regarding Y87C, the “effect of a mutation on the interaction” value is “with no effect”.

The variants in a further assay derive from B1. To be noted: with uvrag_human UVRAG. This is another data set of the same source.
For F133V, the “effect of a mutation on the interaction” value is given as “with no effect”.

A further assay covers variants of B1. To be noted: with uvrag_human UVRAG. This is another data set of the same source.
Turning to F133L, the “effect of a mutation on the interaction” value was “with no effect”.

Another assay covers variants of B2. To be noted: with cnbd1_human CNBD1, Q8NA66.
Consider F133V, for which the “effect of a mutation on the interaction” value is on record as “with no effect”.

Another assay covers variants of B2. To be noted: with cnbd1_human CNBD1, Q8NA66. This is another data set of the same source.
In the case of F133L, the “effect of a mutation on the interaction” value is on record as “with no effect”.

The variants in the next assay derive from B2. To be noted: with cnbd1_human CNBD1, Q8NA66. This is another data set of the same source.
In the case of Y87C, the “effect of a mutation on the interaction” value is “with no effect”.

In the next assay the parent is B3. To be noted: with s4a5_human SLC4A5, Q9BY07.
For F133V, the “effect of a mutation on the interaction” value is listed as “with no effect”.

The variants in another assay derive from B3. To be noted: with s4a5_human SLC4A5, Q9BY07. This is another data set of the same source.
With F133L, the “effect of a mutation on the interaction” value was “with no effect”.

In a further assay the parent is B3. To be noted: with s4a5_human SLC4A5, Q9BY07. This is another data set of the same source.
Take F102C: the “effect of a mutation on the interaction” value was “with no effect”.

In another assay the parent is B3. To be noted: with s4a5_human SLC4A5, Q9BY07. This is another data set of the same source.
As to Y87C, the “effect of a mutation on the interaction” value is listed as “with no effect”.

Variants of B4 are the subject of another assay. To be noted: with arfrp_human ARFRP1, Q13795.
For the variant Y87C, the “effect of a mutation on the interaction” value was “with no effect”.

In another assay the parent is B5. To be noted: with zbtb2_human ZBTB2, Q8N680.
Take Y87C: the “effect of a mutation on the interaction” value is on record as “with no effect”.

A further assay covers variants of B5. To be noted: with zbtb2_human ZBTB2, Q8N680. The source holds these as a separate data set.
Consider F133V, for which the “effect of a mutation on the interaction” value is recorded as “causing an interaction”.

Variants of B5 are the subject of a further assay. To be noted: with zbtb2_human ZBTB2, Q8N680. The source holds these as a separate data set.
As for F133L, the “effect of a mutation on the interaction” value was “with no effect”.

Variants of B5 are the subject of the next assay. To be noted: with zbtb2_human ZBTB2, Q8N680. The source holds these as a separate data set.
For the variant F133L, the “effect of a mutation on the interaction” value was “causing an interaction”.
